Data set [1] has as its target EhDNAligI-Phe11Ala:Phe12Ala (Entamoeba histolytica).
Data set [2] relates to EhDNAligI ΔPIP;EhPCNA (Entamoeba histolytica;Entamoeba histolytica). Kind of data set: fluorescence anisotropy. The conditions noted are these: 3' dideoxy-C at the nick that halts ligation; Anisotropy: 50 mM Tris/HCl pH 7.5, 25 mM NaCl, 5 mM DTT, 10 mM MgCl2, 250 ug/mL BSA, 1 mM ATP, 30 C; footprinting: 50 mM Tris/HCl pH 7.5, 6.6 mM MgCl2, 5 mM …. (In fluorescence polarisation assays a small probe gives low polarisation when free and higher when bound to something large.)

The test system of data set [3] is EhDNAligI full-length (DNA ligase I);EhPCNA (Entamoeba histolytica;Entamoeba histolytica). Kind of data set: fluorescence anisotropy. The following applies: 3' dideoxy-C at the nick that halts ligation; Anisotropy: 50 mM Tris/HCl pH 7.5, 25 mM NaCl, 5 mM DTT, 10 mM MgCl2, 250 ug/mL BSA, 1 mM ATP, 30 C; footprinting: 50 mM Tris/HCl pH 7.5, 6.6 mM MgCl2, 5 mM ….
Data set [4] relates to EhDNAligI full-length (DNA ligase I);HsPCNA (Entamoeba histolytica;Homo sapiens). The data set can be described thus: fluorescence anisotropy. The following applies: with HsPCNA, 10 mM Mg2+, 1 mM ATP, 3' dideoxy-C at the nick that halts ligation, Anisotropy: 50 mM Tris/HCl pH 7.5, 25 mM NaCl, 5 mM DTT, 10 mM MgCl2, 250 ug/mL BSA, 30 C, footprinting: 50 mM Tris/HCl pH 7.5, 6.6 mM MgCl2, 5 mM ….

Data set [5] relates to EhDNAligI full-length (DNA ligase I) (Entamoeba histolytica). Kind of data set: fluorescence anisotropy. The conditions noted are these: 3' dideoxy-C at the nick that halts ligation; Anisotropy: 50 mM Tris/HCl pH 7.5, 25 mM NaCl, 5 mM DTT, 10 mM MgCl2, 250 ug/mL BSA, 1 mM ATP, 30 C; footprinting: 50 mM Tris/HCl pH 7.5, 6.6 mM MgCl2, 5 mM ….
Data set [6] concerns EhDNAligI ΔPIP (Entamoeba histolytica). The data set can be described thus: fluorescence anisotropy. The conditions noted are these: 3' dideoxy-C at the nick that halts ligation; Anisotropy: 50 mM Tris/HCl pH 7.5, 25 mM NaCl, 5 mM DTT, 10 mM MgCl2, 250 ug/mL BSA, 1 mM ATP, 30 C; footprinting: 50 mM Tris/HCl pH 7.5, 6.6 mM MgCl2, 5 mM ….
Data set [7] has as its system EhDNAligI ΔDBD;EhPCNA (Entamoeba histolytica;Entamoeba histolytica). Kind of data set: fluorescence anisotropy. The conditions noted are these: 3' dideoxy-C at the nick that halts ligation; Anisotropy: 50 mM Tris/HCl pH 7.5, 25 mM NaCl, 5 mM DTT, 10 mM MgCl2, 250 ug/mL BSA, 1 mM ATP, 30 C; footprinting: 50 mM Tris/HCl pH 7.5, 6.6 mM MgCl2, 5 mM ….
The target in data set [8] is Entamoeba histolytica DNA ligase I, full-length (Entamoeba histolytica).
In data set [9] the target is EhDNAligI deletion mutant lacking its first 39 amino acids including the PIP box (Entamoeba histolytica).
The target in data set [10] is Entamoeba histolytica DNA ligase I, full-length (Entamoeba histolytica). The source holds these as a separate data set.

Where only a bound is given, the exact number is not on record here.

As for EhPCNA-Δ254 (natural protein), in data set [1], the stimulation of nick-sealing activity (time course) by the EhPCNA mutant was below 2.4 fold.
Turning to “3'-FAM nicked dsDNA (anisotropy substrate)”, the Kd in [2] worked out at 10.2 nM; in data set [3], 6.2 nM; in data set [4], 11.3 nM; in [5], 72.1 nM; in data set [6] it was 82.1 nM; in data set [7], 95.5 nM.
Substance “Entamoeba histolytica proliferating cell nuclear antigen (natural protein)” registered a stimulation of nick-sealing activity (time course) by wild-type EhPCNA in data set [1] of 9.8 fold. For the same substance, the catalytic efficiency (k cat/K m) of steady-state ligation, with against without EhPCNA in data set [8] and in data set [9] was above 18 fold in each case. This substance came in with an affinity of the ligase for 3′-FAM-labeled nicked DNA by fluorescence anisotropy, with against without EhPCNA in data set [10] of 11 fold.
For EhPCNA-V127A-I129A (natural protein), the stimulation of nick-sealing activity (time course) by the EhPCNA mutant in [1] is below 2.4 fold.

For orientation: Kd means the concentration at which binding is half-saturated. Lower therefore signals a tighter complex.

The values are drawn from PMC5407892.
